Experiments:
Assay type in all cases: binding
[1] = Probe fluorescence ratio response to linoleic acid relative to ADIFAB2; settings: response relative to ADIFAB2
Procedure, shortened: (§1)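 Each fatty acid's response was expressed relative to ADIFAB2, the rI-FABP-L72A probe, as ΔR/ΔRreference. ΔR is the change in the background-corrected two-wavelength intensity ratio R=Fλ1/Fλ2 from its analyte-free baseline R0. Emission was read near about 420-480 nm for unbound and about 495-580 nm for FFA-bound probe.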

[2] = Probe fluorescence ratio response to linolenic acid relative to ADIFAB2; settings: response relative to ADIFAB2
Procedure, shortened: as §1

[3] = Probe fluorescence ratio response to oleic acid relative to ADIFAB2; settings: response relative to ADIFAB2
Procedure, shortened: as §1

[4] = Probe fluorescence ratio response to arachidonic acid relative to ADIFAB2; settings: arachidonic acid; response relative to ADIFAB2
Procedure, shortened: as §1

[5] = Probe fluorescence ratio response to palmitic acid relative to ADIFAB2; settings: response relative to ADIFAB2
Procedure, shortened: as §1

Molecule	DR/DR LA [1]	DR/DR LNA [2]	DR/DR OA [3]	DR/DR AA [4]	DR/DR PA [5]
36I, 72A (protein, listed as Rattus norvegicus, PEPTIDE (1)...(131) wild-type rat intestinal fatty acid binding protein) AFDGTWKVDRNENYEKFMEKMGINVVKRKLGAHDNIKLTITQEGNKFTVKESSNFRNIDVVFELGVDFAYSAADGTELTGTWTMEGNKLVGKFKRVDNGKELIAVREISGNELIQTYTYEGVEAKRIFKKE	0.884	1.004	0.773	0.812	0.815
31V, 72A (protein, listed as Rattus norvegicus, PEPTIDE (1)...(131) wild-type rat intestinal fatty acid binding protein) AFDGTWKVDRNENYEKFMEKMGINVVKRKLVAHDNLKLTITQEGNKFTVKESSNFRNIDVVFELGVDFAYSAADGTELTGTWTMEGNKLVGKFKRVDNGKELIAVREISGNELIQTYTYEGVEAKRIFKKE	0.384	0.776	0.081	0.395	0.206
31E, 72A (protein, listed as Rattus norvegicus, PEPTIDE (1)...(131) wild-type rat intestinal fatty acid binding protein) AFDGTWKVDRNENYEKFMEKMGINVVKRKLEAHDNLKLTITQEGNKFTVKESSNFRNIDVVFELGVDFAYSAADGTELTGTWTMEGNKLVGKFKRVDNGKELIAVREISGNELIQTYTYEGVEAKRIFKKE	0.430	0.522	0.211	0.238	0.223
31T, 72A (protein, listed as Rattus norvegicus, PEPTIDE (1)...(131) wild-type rat intestinal fatty acid binding protein) AFDGTWKVDRNENYEKFMEKMGINVVKRKLTAHDNLKLTITQEGNKFTVKESSNFRNIDVVFELGVDFAYSAADGTELTGTWTMEGNKLVGKFKRVDNGKELIAVREISGNELIQTYTYEGVEAKRIFKKE	0.215	0.510	−0.024	0.143	0.145
38W, 72A (protein, listed as Rattus norvegicus, PEPTIDE (1)...(131) wild-type rat intestinal fatty acid binding protein) AFDGTWKVDRNENYEKFMEKMGINVVKRKLGAHDNLKWTITQEGNKFTVKESSNFRNIDVVFELGVDFAYSAADGTELTGTWTMEGNKLVGKFKRVDNGKELIAVREISGNELIQTYTYEGVEAKRIFKKE	2.413	1.336	1.583	1.350	1.552
104S, 72A (protein, listed as Rattus norvegicus, PEPTIDE (1)...(131) wild-type rat intestinal fatty acid binding protein) AFDGTWKVDRNENYEKFMEKMGINVVKRKLGAHDNLKLTITQEGNKFTVKESSNFRNIDVVFELGVDFAYSAADGTELTGTWTMEGNKLVGKFKRVDNGKELISVREISGNELIQTYTYEGVEAKRIFKKE	1.715	1.538	1.663	1.638	1.570
31I, 72A (protein, listed as Rattus norvegicus, PEPTIDE (1)...(131) wild-type rat intestinal fatty acid binding protein) AFDGTWKVDRNENYEKFMEKMGINVVKRKLIAHDNLKLTITQEGNKFTVKESSNFRNIDVVFELGVDFAYSAADGTELTGTWTMEGNKLVGKFKRVDNGKELIAVREISGNELIQTYTYEGVEAKRIFKKE	0.168	0.413	−0.213	0.303	0.091
62W, 72A (protein, listed as Rattus norvegicus, PEPTIDE (1)...(131) wild-type rat intestinal fatty acid binding protein) AFDGTWKVDRNENYEKFMEKMGINVVKRKLGAHDNLKLTITQEGNKFTVKESSNFRNIDVVWELGVDFAYSAADGTELTGTWTMEGNKLVGKFKRVDNGKELIAVREISGNELIQTYTYEGVEAKRIFKKE	2.339	2.120	2.155	2.206	1.450
23W, 72A (protein, listed as Rattus norvegicus, PEPTIDE (1)...(131) wild-type rat intestinal fatty acid binding protein) AFDGTWKVDRNENYEKFMEKMGWNVVKRKLGAHDNLKLTITQEGNKFTVKESSNFRNIDVVFELGVDFAYSAADGTELTGTWTMEGNKLVGKFKRVDNGKELIAVREISGNELIQTYTYEGVEAKRIFKKE	0.794	0.956	0.448	0.618	0.492
31R, 72A (protein, listed as Rattus norvegicus, PEPTIDE (1)...(131) wild-type rat intestinal fatty acid binding protein) AFDGTWKVDRNENYEKFMEKMGINVVKRKLRAHDNLKLTITQEGNKFTVKESSNFRNIDVVFELGVDFAYSAADGTELTGTWTMEGNKLVGKFKRVDNGKELIAVREISGNELIQTYTYEGVEAKRIFKKE	0.405	0.437	0.227	0.250	0.342
31F, 72A (protein, listed as Rattus norvegicus, PEPTIDE (1)...(131) wild-type rat intestinal fatty acid binding protein) AFDGTWKVDRNENYEKFMEKMGINVVKRKLFAHDNLKLTITQEGNKFTVKESSNFRNIDVVFELGVDFAYSAADGTELTGTWTMEGNKLVGKFKRVDNGKELIAVREISGNELIQTYTYEGVEAKRIFKKE	1.759	1.647	1.331	1.210	1.438
49I, 72A (protein, listed as Rattus norvegicus, PEPTIDE (1)...(131) wild-type rat intestinal fatty acid binding protein) AFDGTWKVDRNENYEKFMEKMGINVVKRKLGAHDNLKLTITQEGNKFTIKESSNFRNIDVVFELGVDFAYSAADGTELTGTWTMEGNKLVGKFKRVDNGKELIAVREISGNELIQTYTYEGVEAKRIFKKE	1.839	1.820	1.804	1.796	1.162
11Q, 72A (protein, listed as Rattus norvegicus, PEPTIDE (1)...(131) wild-type rat intestinal fatty acid binding protein) AFDGTWKVDRQENYEKFMEKMGINVVKRKLGAHDNLKLTITQEGNKFTVKESSNFRNIDVVFELGVDFAYSAADGTELTGTWTMEGNKLVGKFKRVDNGKELIAVREISGNELIQTYTYEGVEAKRIFKKE	1.715	1.582	1.716	1.525	1.450
104N, 72A (protein, listed as Rattus norvegicus, PEPTIDE (1)...(131) wild-type rat intestinal fatty acid binding protein) AFDGTWKVDRNENYEKFMEKMGINVVKRKLGAHDNLKLTITQEGNKFTVKESSNFRNIDVVFELGVDFAYSAADGTELTGTWTMEGNKLVGKFKRVDNGKELINVREISGNELIQTYTYEGVEAKRIFKKE	0.385	0.391	0.408	1.018	0.406
70Q, 72A (protein, listed as Rattus norvegicus, PEPTIDE (1)...(131) wild-type rat intestinal fatty acid binding protein) AFDGTWKVDRNENYEKFMEKMGINVVKRKLGAHDNLKLTITQEGNKFTVKESSNFRNIDVVFELGVDFAQSAADGTELTGTWTMEGNKLVGKFKRVDNGKELIAVREISGNELIQTYTYEGVEAKRIFKKE	1.819	1.622	1.604	1.546	0.868
62Y, 72A (protein, listed as Rattus norvegicus, PEPTIDE (1)...(131) wild-type rat intestinal fatty acid binding protein) AFDGTWKVDRNENYEKFMEKMGINVVKRKLGAHDNLKLTITQEGNKFTVKESSNFRNIDVVYELGVDFAYSAADGTELTGTWTMEGNKLVGKFKRVDNGKELIAVREISGNELIQTYTYEGVEAKRIFKKE	1.545	1.395	1.439	1.598	1.037
23V, 72A (protein, listed as Rattus norvegicus, PEPTIDE (1)...(131) wild-type rat intestinal fatty acid binding protein) AFDGTWKVDRNENYEKFMEKMGVNVVKRKLGAHDNLKLTITQEGNKFTVKESSNFRNIDVVFELGVDFAYSAADGTELTGTWTMEGNKLVGKFKRVDNGKELIAVREISGNELIQTYTYEGVEAKRIFKKE	1.731	1.351	1.561	1.464	1.475
